Measurements as given in patent publication US20100004165A1, “Novel Protein Transduction Domains and Uses Therefor” (The Arizona Board of Regents, a body corporate acting on …, priority 2005, published 2010).
Read-outs that look alike come from different tables or passages of the source. Square brackets hold non-standard residues; d marks the D form. Ends that are not written are not given here. * marks the point of attachment. FITC = O=C1OC2(c3ccc(O)cc3Oc3cc(O)ccc32)c2ccc(NC(=S)*)cc21; pS = N[C@@H](COP(=O)(O)O)C(=O)O; βAla = NCCC(=O)O

Key:
[1] = system: 3T3 fibroblasts; test: Transduction of FITC-labeled peptides into 3T3 fibroblasts (fluorescence imaging); type: cell-based; settings: 50 μM, 1 hour, media with or without serum
Description: FITC-(b)[…] (SEQ ID NO: 37)(WLRRIKA (SEQ ID NO: 3) monomer), FITC-(b)[…] (SEQ ID NO: 38)(WLRRIKA (SEQ ID NO: 3) dimer), and FITC-(b)[…] (SEQ ID NO: 39)(WLRRIKA (SEQ ID NO: 3) trimer) were synthesized on a 0.2 mmol scale using Fmoc-based solid phase peptide synthesis. The peptides were solubilized in water to create 3 mM stock solutions. 3T3 fibroblasts, cultured in Dulbecco's Modified Eagle Medium (DMEM) with 2 mM glutamine, pen/strep antibiotic, and 10% fetal bovine serum (FBS), were seeded at a density of 50,000 cells per well (1 ml of 50,000 cells/ml) in 4-well chambered slides (4 slides were used). The slides were incubated at 37° C. with 5% CO2 in a humidified incubator for 4 hours to allow the cells to adhere to the slides. After 4 hours, each well was washed 3 times with phosphate buffered saline (PBS). 50 μl of a 3 mM stock of each peptide as well as a 3 mM stock of fluorescein in water were added to 15 ml tubes containing 3 ml of DMEM with 2 mM glutamine, antibiotic, and 10% FBS and to 15 ml tubes containing 3 ml of serum-free DMEM with 2 mM glutamine and antibiotic. Treatments were performed in duplicate for both serum-containing and serum-free DMEM. On each slide system, each well received media (either with or without serum) with fluorescein, WLRRIKA (SEQ ID NO: 3) monomer, WLRRIKA (SEQ ID NO: 3) dimer, or WLRRIKA (SEQ ID NO: 3) trimer. In all cases, the final peptide or fluorescein concentration was 50 μM per well. Once the treatments were added, the slides were incubated at 37° C. with 5% CO2 in a humidified incubator for 1 hour. Then, each well was washed with PBS 3 times. Following the PBS wash, 0.2 ml trypsin was added to each well to digest residual peptide bound to the outer cellular membranes, and the slides were incubated at 37° C. for 10 minutes. To inactivate the trypsin, 1 ml DMEM with serum was added to each well, and the slides were incubated for 4 hours to allow cells to reattach to the slides. After 4 hours, the cells were washed 3 times in PBS, and 1 ml of DMEM with serum was added to each well. Then, the slides were imaged using a 40× objective. […]

[2] = system: primary rat astrocyte cells; test: Transduction across cell membranes in primary rat astrocyte cells; type: cell-based
Description: The in vitro model used to assess transduction across cell membranes was primary rat astrocyte cells. Cells were isolated as described (Innocenti et. al., J. Neurosci. 20:1800-1808, 2000), seeded at ˜3×10^4 cells/cm^2, and cultured in full serum (10% FBS in α-MEM) overnight. Some cells were serum starved by culturing in 0.5% FBS for 1-24 hours prior to treatment with transduction peptides.

[3] = system: porcine ear skin; test: Ex vivo skin transduction, porcine ear skin in modified Franz diffusion cell (Example 2); type: in vitro ADME; settings: for skin penetration: 100 uM, conjugated or alone (FIG. 1, Panel C)
Description: The ex vivo model selected for skin transduction studies was freshly excised porcine ears. […] The system was maintained at 37° C. and under constant stirring. […] The amount of peptides that permeated across the skin was determined in the receptor phase; 1.5 mL of the receptor phase was withdrawn, lyophilized and the residue was suspended in 150 μL of water. […] Standard curves of the peptides were used as reference.

[4] = system: porcine ear skin; test: In vitro skin penetration and transdermal delivery, porcine ear skin in Franz diffusion cell, spectrofluorimetry (Example 3); settings: for penetration in both SC and [E+D] compared with nonconjugated P20: all time points studied (0.5-8 h), p<0.05; for transdermal delivery: amount in the receptor phase: detected only at 8 hours post-application; for course of concentration in [E+D]: from 0.5 to 4 hours post-application, no further increase between 4 and 8 hours; for time of maximal rate of penetration in the whole skin (SC+[E+D]): post-application
Description: Fluorescence microscopy was used to visualize the peptides in different skin layers.
Formulations: Except in the experiments involving chemical penetration enhancers, FITC-labeled peptides were dissolved in phosphate-buffered saline (PBS, 10 mM, pH 7.2); the peptide concentration was 100 μM. In the experiment involving penetration enhancers, PBS could not be used as a solvent because of the lipophilic nature of monoolein and oleic acid. Propylene glycol was used as a solvent, since it solubilizes both lipids and peptides. […] The formulations were prepared by mixing monoolein or oleic acid with propylene glycol and adding the peptides to the system immediately thereafter.
Porcine ear skin was used as model skin for in vitro skin penetration studies because of its similarity with human skin, especially regarding histological and biochemical properties and permeability to drugs (33). Freshly excised porcine ears were obtained from a local abattoir. The skin from the outer surface of the ear was carefully dissected; making sure that the subcutaneous fat was maximally removed (34). Maximum care was taken to maintain the integrity of the skin, which was assured by histology. The cleaned porcine ear skin was immediately mounted in a Franz diffusion cell (diffusion area of 1 cm^2; Laboratory Glass Apparatus, Inc, Berkeley, Calif., USA), with the stratum corneum facing the donor compartment (where the formulation was applied) and the dermis facing the receptor compartment, which was filled with PBS (100 mM, pH 7.2, 3 mL). The receptor phase was maintained at 37° C. and under constant stirring. To achieve higher reproducibility, the skin samples were equilibrated to the diffusion cell conditions for 30 minutes before application of any formulation.
PBS solutions or propylene glycol formulations of the peptides (70 μL each) were applied to the skin surface (donor compartment). […] The concentrations of FITC-P20 (SEQ ID NO: 9), FITC-YARA-P20 (SEQ ID NO: 42), and FITC-TAT-P20 (SEQ ID NO: 43) in the skin and receptor phase were determined at 0.5, 1, 2, 4, and 8 hour post-application.
At the end of the experiment, skin surfaces were thoroughly washed with distilled water to remove excess formulation and carefully wiped with a tissue paper. To separate the stratum corneum (SC) from the remaining epidermis (E) and dermis (D), the skin was subjected to tape stripping. The skin was stripped with 15 pieces of adhesive tape (3M, St. Paul, Minn., USA), and the tapes containing the SC were immersed in 3 mL of a water:methanol (1:1 v/v) solution, vortexed for 2 min, and bath sonicated for 30 minutes. The remaining [E+D] was cut in small pieces, vortexed for 2 minutes in 2 mL of a water:methanol (1:1 v/v) solution, and homogenized using a tissue grinder for 1 minute and bath sonication for 30 minutes. The resulting mixture was centrifuged for 1 minute. The peptide present in the receptor phase was concentrated (10×) as follows. Samples (2 mL) of the receptor phase were lyophilized for 24 hours, and the residue was dissolved in 200 μL of a hidroalcoholic (20% of ethanol) solution.
All solutions were subjected to fluorimetry analysis using a Gemini SpectraMax™ platereader (Molecular Devices, Sunnyvale, Calif., USA) with excitation at 495 nm and emission at 518 nm. […] To evaluate the recovery of the peptides from the skin in the extraction procedure, tissues sections (1 cm^2) were spiked with 20 μL of 0.2 and 0.5 mM solutions of the peptides. The skin sections were homogenized using a tissue grinder, vortex-mixer, and bath sonicator, as described above. […] We accounted for such a recovery percentage in the quantification of peptides.

[5] = system: porcine ear skin; test: Fluorescence microscopy of skin sections after peptide application
Source text: The skin sections (8 μm) were mounted on glass slides. The slides were visualized without any additional staining or treatment through a 20× objective using a Zeiss microscope (Carl Zeiss, Thornwood, N.Y., USA) equipped with a filter for FITC and AxioVision software.

[6] = system: Rat aorta; test: Vasorelaxation of rat aorta rings pre-contracted with KCl (muscle bath)
Description: Rat aorta was isolated and dissected free from connective and fat tissue. Transverse rings, 3.0 mm in width, were cut and tied to silk suture. The tissue was suspended in a muscle bath containing a bicarbonate buffer (120 mM NaCl, 4.7 mM KCl, 1.0 mM MgSO4, 1.0 mM NaH2PO4, 10 mM glucose, 1.5 mM CaCl2, and 25 mM […], pH 7.4) and equilibrated with 95% O2/5% CO2 at 37° C. The rings were fixed at one end to a stainless steel wire and attached to a force transducer in muscle perfusion system (Radnotti). The rings were then progressively stretched, and the isometric force generated in response to 110 mM KCl (with equimolar replacement of NaCl in bicarbonate buffer) was determined until the consistent maximal force was produced. Agonists and peptide was added directly to the baths. Tissue that was pre-contracted with 110 mM potassium chloride (KCl) followed by 1.0 mM WL-P20 ([…]p[…], pS is phosphoserine) (SEQ ID NO: 10), where pS is phosphoserine) relaxed compared to untreated control (13% relaxation at 10 minutes, 50% relaxation at 30 minutes, and maximum 88% relaxation at ˜60 minutes, FIG. 4). Percent relaxation was calculated relative to maximum force generated with KCl. […] Such a difference may result from different mechanisms of penetration and/or intracellular localization.

[7] = PBS vehicle, 4 hours post-application

FITC-(b)AWLRRIKA ({FITC}-[βAla]WLRRIKA) [WLRRIKA monomer]
fluorescence within the cells (ability to penetrate the cells) [1]: not able to penetrate the cells

FITC-(b)AWLRRIKAWLRRIKA [WLRRIKA dimer]
fluorescence within the cells (ability to penetrate the cells) [1]: bright fluorescence within the cells

WL-scrP20: control, the pseudo-monomer WLRRIKA-(WL-scrP20)
transduction ([2]; 1 μM): no transduction was observed | transduction ([2]; 25 μM): no transduction was observed | transduction ([2]; 50 μM): no transduction was observed

WLRRIKAWLRRIKAWLRRIKA [W3]
fluorescence within the cells (ability to penetrate the cells) [1]: bright fluorescence within the cells | carrying of non-covalently bound P20 across the skin ([3]; 100 uM transduction domain, non-covalently bound (FIG. 1, Panel A)): did not carry P20 | skin penetration [3]: significantly enhanced | skin penetration [E+D] of non-covalently bound P20 ([3]; 1 mM W3 used to carry P20 (FIG. 1, Panel B)): significant skin penetration | transduction ([2]; 50 μM): efficient transduction | persistence of transduction ([2]; 50 μM for 1 h): at least 24 hours

YARAAARQARA
amount penetrated into the skin (SC+[E+D]) relative to amount that permeated across the skin [4]: 34 times | effect of monoolein or oleic acid on topical or transdermal delivery [4]: failed to further increase | influence of propylene glycol on skin penetration compared to PBS [4]: did not influence | penetration in the SC and [E+D] relative to the control peptide FITC-YKAc [4]: 8-10 times | transdermal delivery: amount found in the receptor phase [4]: 0.053 ± 0.009 nmol | localisation of fluorescence in skin layers [5]: strong fluorescent staining of SC and viable epidermis

YARAAARQARAWLRRASAPLPGLK (YARAAARQARAWLRRA[pS]APLPGLK; also: FITC label) [YARA-P20]
penetration in both SC and [E+D] compared with nonconjugated P20 [4]: significantly higher | transdermal delivery: amount in the receptor phase [4]: 0.031 ± 0.011 nmol | course of concentration in [E+D] [4]: progressively increased | time of maximal rate of penetration in the whole skin (SC+[E+D]) [4]: 1 h | time of maximum relaxation [6]: 5 to 10 min | skin penetration [3]: significantly enhanced | localisation of fluorescence in skin layers ([5]; 4 hours post-application): strong fluorescence in the SC and viable epidermis

YGRKKRRQRRR [TAT]
influence of propylene glycol on skin penetration compared to PBS ([4]; 4 hours post-application): did not influence | amount penetrated into the skin (SC+[E+D]) relative to amount that permeated across the skin [4, 7]: 30 times | transdermal delivery: amount found in the receptor phase [4, 7]: 0.058 ± 0.008 nmol | effect of monoolein or oleic acid on topical or transdermal delivery ([4]; propylene glycol, monoolein 10% w/w or oleic acid 5% w/w, 4 h): failed to further increase | localisation of fluorescence in skin layers ([5]; 4 hours post-application): strong fluorescent staining of SC and viable epidermis

YGRKKRRQRRRWLRRASAPLPGLK [TAT-P20]
penetration in both SC and [E+D] compared with nonconjugated P20 [4]: significantly higher | transdermal delivery: amount in the receptor phase [4]: 0.027 ± 0.009 nmol | course of concentration in [E+D] [4]: progressively increased | time of maximal rate of penetration in the whole skin (SC+[E+D]) [4]: 1 h | localisation of fluorescence in skin layers ([5]; 4 hours post-application): strong fluorescence in the SC and viable epidermis
